T1: Mcl-1, Q07820
T1 chain: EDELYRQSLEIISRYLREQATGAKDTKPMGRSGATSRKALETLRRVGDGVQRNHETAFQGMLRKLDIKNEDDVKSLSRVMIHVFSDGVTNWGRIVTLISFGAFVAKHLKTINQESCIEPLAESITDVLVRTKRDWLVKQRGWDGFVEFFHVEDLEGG


Experiments:
Mcl-1, Q07820 [1] = molecular target: T1, Mcl-1, Q07820; assay: direct-binding FP with the BODIPY-labeled analogue
Mcl-1, Q07820 [2] = molecular target: T1, Mcl-1, Q07820; assay: competition FP; displacement of the labeled Bak BH3 peptide
Bcl-xL, Q07817 = assay: direct-binding FP with the BODIPY-labeled analogue
Bcl-xL, Q07817, sequence (Q07817 1-209): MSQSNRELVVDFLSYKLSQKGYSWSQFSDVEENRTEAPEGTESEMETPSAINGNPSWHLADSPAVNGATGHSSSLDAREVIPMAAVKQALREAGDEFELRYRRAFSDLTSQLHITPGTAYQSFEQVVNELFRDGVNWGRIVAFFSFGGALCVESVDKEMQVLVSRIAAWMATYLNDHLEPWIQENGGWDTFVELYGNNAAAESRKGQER

Binder	Kd (Mcl-1, Q07820 [1]) [nM]	Ki (Mcl-1, Q07820 [2]) [nM]	Kd (Bcl-xL, Q07817) [nM]
EEQWAREIGAQLRRMADDLNAQYERR (peptide, UniProt Q9BXH1 130-155, looked up, modifications not checked) [BODIPY-TMR-labeled analog of Puma BH3 α-peptide 1′, Q9BXH1 130-155]	< 2	–	–
EEQWAREIGAQLRRMADDLNAQYERR (peptide, UniProt Q9BXH1 130-155, looked up, modifications not checked) [Puma BH3 α-peptide 1′, Q9BXH1 130-155]	–	< 10	–
EEQWAREIGAQLRRMADDLNAQYERR (peptide, UniProt Q9BXH1 130-155, looked up, modifications not checked) [BODIPY-TMR-labeled analog of Puma BH3 α/β-peptide 4′, Q9BXH1 130-155]	110	–	2.2

— patent publication US20130177981A1
